In US20210380663A1 (ACCELERON PHARMA, published 2021):
Where a chain is given by its changes, count along the chain named. Names may count otherwise. Read-outs that look alike come from different tables or passages of the source. Values belong to the molecule of their own block, whether it stands above or below them.

Assays:
TGFβ3 [1] = molecular target: T1, TGFβ3 (human, UniProt P10600 301-412)
T1 sequence (looked up): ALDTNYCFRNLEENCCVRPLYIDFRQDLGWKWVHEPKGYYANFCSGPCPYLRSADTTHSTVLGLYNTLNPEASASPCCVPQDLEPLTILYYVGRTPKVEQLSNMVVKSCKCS

TGFβ1 [2] = molecular target: T2, TGFβ1 (human, UniProt P01137 279-390)
T2 sequence (P01137 279-390 limits assumed): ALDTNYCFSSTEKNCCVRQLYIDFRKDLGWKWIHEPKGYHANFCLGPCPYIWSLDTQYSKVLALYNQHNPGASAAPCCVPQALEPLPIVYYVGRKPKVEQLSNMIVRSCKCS

GDF11 [3] = molecular target: T3, GDF11 (UniProt O95390 299-407)
T3 sequence (O95390 299-407 limits assumed): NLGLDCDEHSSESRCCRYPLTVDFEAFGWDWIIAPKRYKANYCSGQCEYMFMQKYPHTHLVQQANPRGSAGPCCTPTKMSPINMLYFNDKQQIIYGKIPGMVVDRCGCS

activin A [4] = molecular target: T4, activin A (UniProt P08476 311-426)
T4 sequence (looked up): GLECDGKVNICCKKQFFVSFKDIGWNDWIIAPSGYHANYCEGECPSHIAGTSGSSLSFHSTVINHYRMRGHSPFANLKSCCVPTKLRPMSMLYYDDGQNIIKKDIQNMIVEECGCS

BMP9 = molecular target: T5, BMP9 (UniProt Q9UK05)
T5 sequence (looked up): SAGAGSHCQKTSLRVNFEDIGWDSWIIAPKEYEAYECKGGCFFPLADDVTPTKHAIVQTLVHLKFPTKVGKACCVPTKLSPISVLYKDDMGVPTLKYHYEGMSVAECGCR

TGFβ2 (human) = molecular target: T6, TGFβ2 (human) (UniProt P61812)
T6 sequence (looked up): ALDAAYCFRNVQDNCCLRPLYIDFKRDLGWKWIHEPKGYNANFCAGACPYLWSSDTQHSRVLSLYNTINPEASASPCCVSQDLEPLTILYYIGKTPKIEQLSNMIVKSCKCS

activin B = molecular target: T7, activin B (UniProt P09529)
T7 sequence (looked up): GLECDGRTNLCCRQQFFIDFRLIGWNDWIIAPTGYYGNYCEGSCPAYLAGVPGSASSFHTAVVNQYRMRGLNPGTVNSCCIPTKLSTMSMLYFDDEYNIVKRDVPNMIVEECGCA

GDF8 = GDF8 (UniProt O14793)
TGFβ1 [5] = molecular target: T2, TGFβ1; remark: listed apart in the source
BMP10 = molecular target: T8, BMP10 (UniProt O95393)
T8 sequence (looked up): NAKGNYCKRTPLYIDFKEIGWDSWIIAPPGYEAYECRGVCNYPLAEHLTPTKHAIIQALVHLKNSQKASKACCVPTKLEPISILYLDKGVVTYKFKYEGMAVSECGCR

TGFβ3 [6] = molecular target: T1, TGFβ3; experiment: cell-based or functional assay
TGFβ1 [7] = molecular target: T2, TGFβ1; experiment: cell-based or functional assay
GDF11 [8] = molecular target: T3, GDF11; experiment: cell-based or functional assay
activin A [9] = molecular target: T4, activin A; experiment: cell-based or functional assay
TGFβ3 [10] = molecular target: T1, TGFβ3; experiment: cell-based or functional assay; remark: listed apart in the source
TGFβ1 [11] = molecular target: T2, TGFβ1; experiment: cell-based or functional assay; remark: listed apart in the source
TGFβ3 [12] = molecular target: T1, TGFβ3; remark: listed apart in the source

IC50; inhibition of TGFβ3 signalling, CAGA12 reporter gene assay in A549 cells (TGFβ3 [1]): 0.106 nM | IC50; inhibition of TGFβ1 signalling, CAGA12 reporter gene assay in A549 cells (TGFβ1 [2]): 0.143 nM
Molecule: TGFBRII-(G4S)4-hFc dimer (Fc fusion)

IC50; inhibition of GDF11 signalling, CAGA12 reporter gene assay (GDF11 [3]): > 20 µg/mL | IC50; inhibition of activin A signalling, CAGA12 reporter gene assay (activin A [4]): > 20 µg/mL | IC50; inhibition of BMP9 signalling, CAGA12 reporter gene assay (BMP9): > 20 µg/mL | IC50; inhibition of TGFβ2 signalling, CAGA12 reporter gene assay (TGFβ2 (human)): > 20 µg/mL | IC50; inhibition of activin B signalling, CAGA12 reporter gene assay (activin B): > 20 µg/mL | IC50; inhibition of GDF8 signalling, CAGA12 reporter gene assay (GDF8): > 20 µg/mL | IC50; inhibition of TGFβ1 signalling, CAGA12 reporter gene assay (TGFβ1 [5]): 0.017 nM | IC50; inhibition of BMP10 signalling, CAGA12 reporter gene assay (BMP10): > 20 µg/mL
Molecule: TβRII-Fc homodimer (Fc fusion)

CAGA12 reporter gene assay in A549 cells, inhibition relative to the TGFBRII-(G4S)4-hFc homodimer (TGFβ3 [6]): ~7 fold | CAGA12 reporter gene assay in A549 cells, inhibition relative to the TGFBRII-(G4S)4-hFc homodimer (TGFβ1 [7]): ~7 fold
B1: Fc1-(G4S)4G-TGFBRII, homodimer (Fc fusion)
chain: GASNTKVDKRVTGGGTHTCPPCPAPELLGGPSVFLFPPKPKDTLMISRTPEVTCVVVDVSHEDPEVKFNWYVDGVEVHNAKTKPREEQYNSTYRVVSVLTVLHQDWLNGKEYKCKVSNKALPAPIEKTISKAKGQPREPQVCTLPPSREEMTKNQVSLSCAVKGFYPSDIAVEWESNGQPENNYKTTPPVLDSDGSFFLVSKLTVDKSRWQQGNVFSCSVMHEALHNHYTQKSLSLSPGAGGGGSGGGGSGGGGSGGGGSGTIPPHVQKSDVEMEAQKDEIICPSCNRTAHPLRHINNDMIVTDNNGAVKFPQLCKFCDVRFSTCDNQKSCMSNCSITSICEKPQEVCVAVWRKNDENITLETVCHDPKLPYHDFILEDAASPKCIMKEKKKPGETFFMCSCSSDECNDNIIFSEEYNTSNPD

IC50; inhibition of GDF11 signalling, CAGA12 reporter gene assay in A204 cells (GDF11 [8]): 4.4 nM | IC50; inhibition of activin A signalling, CAGA12 reporter gene assay in A204 cells (activin A [9]): 2.96 nM | IC50; inhibition of TGFβ3 signalling, CAGA12 reporter gene assay in A549 cells (TGFβ3 [10]): 0.016 nM | IC50; inhibition of TGFβ1 signalling, CAGA12 reporter gene assay in A549 cells (TGFβ1 [11]): 0.0201 nM
B2: ActRIIB-Fc-(G4S)4G-TGFBRII + Fc1-(G4S)4G-TGFBRII (3-arm) (Fc fusion)
ActRIIB-Fc(knob)-(G4S)4G-TGFBRII chain: GASGRGEAETRECIYYNANWELERTNQSGLERCEGEQDKRLHCYASWRNSSGTIELVKKGCWLDDFNCYDRQECVATEENPQVYFCCCEGNFCNERFTHLPEAGGPEVTYEPPPTAPTGGGTHTCPPCPAPELLGGPSVFLFPPKPKDTLMISRTPEVTCVVVDVSHEDPEVKFNWYVDGVEVHNAKTKPREEQYNSTYRVVSVLTVLHQDWLNGKEYKCKVSNKALPAPIEKTISKAKGQPREPQVYTLPPCREEMTKNQVSLWCLVKGFYPSDIAVEWESNGQPENNYKTTPPVLDSDGSFFLYSKLTVDKSRWQQGNVFSCSVMHEALHNHYTQKSLSLSPGAGGGGSGGGGSGGGGSGGGGSGTIPPHVQKSDVEMEAQKDEIICPSCNRTAHPLRHINNDMIVTDNNGAVKFPQLCKFCDVRFSTCDNQKSCMSNCSITSICEKPQEVCVAVWRKNDENITLETVCHDPKLPYHDFILEDAASPKCIMKEKKKPGETFFMCSCSSDECNDNIIFSEEYNTSNPD
Fc1(hole)-(G4S)4G-TGFBRII chain: B1 chain

IC50; inhibition of GDF11 signalling, CAGA12 reporter gene assay (GDF11 [3]): 1.73 nM | IC50; inhibition of activin A signalling, CAGA12 reporter gene assay (activin A [4]): 0.85 nM | IC50; inhibition of BMP9 signalling, CAGA12 reporter gene assay (BMP9): > 20 µg/mL | IC50; inhibition of TGFβ3 signalling, CAGA12 reporter gene assay (TGFβ3 [12]): 0.31 nM | IC50; inhibition of TGFβ2 signalling, CAGA12 reporter gene assay (TGFβ2 (human)): > 20 µg/mL | IC50; inhibition of activin B signalling, CAGA12 reporter gene assay (activin B): 0.64 nM | IC50; inhibition of GDF8 signalling, CAGA12 reporter gene assay (GDF8): 8.16 nM | IC50; inhibition of TGFβ1 signalling, CAGA12 reporter gene assay (TGFβ1 [5]): 0.348 nM | IC50; inhibition of BMP10 signalling, CAGA12 reporter gene assay (BMP10): 1.76 nM
B3: ActRIIB-Fc:TβRII-Fc heterodimer (Fc fusion, not shown: a dimerising Fc or GST)
chain 1: GRGEAETRECIYYNANWELERTNQSGLERCEGEQDKRLHCYASWRNSSGTIELVKKGCWLDDFNCYDRQECVATEENPQVYFCCCEGNFCNERFTHLPEAGGPEVTYEPPPTAPTGGGGSGGGGSGGGGSGGGGS
chain 2: TIPPHVQKSDVEMEAQKDEIICPSCNRTAHPLRHINNDMIVTDNNGAVKFPQLCKFCDVRFSTCDNQKSCMSNCSITSICEKPQEVCVAVWRKNDENITLETVCHDPKLPYHDFILEDAASPKCIMKEKKKPGETFFMCSCSSDECNDNIIFSEEYNTSNPDTGGGGSGGGGSGGGGSGGGGS

IC50; inhibition of GDF11 signalling, CAGA12 reporter gene assay (GDF11 [3]): 0.09 nM | IC50; inhibition of activin A signalling, CAGA12 reporter gene assay (activin A [4]): 0.05 nM | IC50; inhibition of BMP9 signalling, CAGA12 reporter gene assay (BMP9): 2 nM | IC50; inhibition of TGFβ3 signalling, CAGA12 reporter gene assay (TGFβ3 [12]): > 20 µg/mL | IC50; inhibition of TGFβ2 signalling, CAGA12 reporter gene assay (TGFβ2 (human)): > 20 µg/mL | IC50; inhibition of activin B signalling, CAGA12 reporter gene assay (activin B): 0.07 nM | IC50; inhibition of GDF8 signalling, CAGA12 reporter gene assay (GDF8): 0.83 nM | IC50; inhibition of TGFβ1 signalling, CAGA12 reporter gene assay (TGFβ1 [5]): > 20 µg/mL | IC50; inhibition of BMP10 signalling, CAGA12 reporter gene assay (BMP10): 0.556 nM | IC50; inhibition of GDF11 signalling, CAGA12 reporter gene assay in A204 cells (GDF11 [8]): 0.135 nM | IC50; inhibition of activin A signalling, CAGA12 reporter gene assay in A204 cells (activin A [9]): 0.079 nM
B4: ActRIIB-Fc homodimer (Fc fusion)
ActRIIB-Fc chain: GRGEAETRECIYYNANWELERTNQSGLERCEGEQDKRLHCYASWRNSSGTIELVKKGCWLDDFNCYDRQECVATEENPQVYFCCCEGNFCNERFTHLPEAGGPEVTYEPPPTAPTGGGTHTCPPCPAPELLGGPSVFLFPPKPKDTLMISRTPEVTCVVVDVSHEDPEVKFNWYVDGVEVHNAKTKPREEQYNSTYRVVSVLTVLHQDWLNGKEYKCKVSNKALPVPIEKTISKAKGQPREPQVYTLPPSREEMTKNQVSLTCLVKGFYPSDIAVEWESNGQPENNYKTTPPVLDSDGSFFLYSKLTVDKSRWQQGNVFSCSVMHEALHNHYTQKSLSLSPGK

IC50; inhibition of GDF11 signalling, CAGA12 reporter gene assay in A204 cells (GDF11 [8]): 2.61 nM | IC50; inhibition of activin A signalling, CAGA12 reporter gene assay in A204 cells (activin A [9]): 1.41 nM
B5: ActRIIB-Fc Single-Arm (Fc fusion)
ActRIIB-Fc chain: B4 ActRIIB-Fc chain with V226A, E252K, D295K
Fc chain without receptor domain: SNTKVDKRVTGGGTHTCPPCPAPELLGGPSVFLFPPKPKDTLMISRTPEVTCVVVDVSHEDPEVKFNWYVDGVEVHNAKTKPREEQYNSTYRVVSVLTVLHQDWLNGKEYKCKVSNKALPAPIEKTISKAKGQPREPQVYTLPPSREEMTKNQVSLTCLVKGFYPSDIAVEWESNGQPENNYDTTPPVLDSDGSFFLYSDLTVDKSRWQQGNVFSCSVMHEALHNHYTQKSLSLSPGK
